Values belong to the sequence of their own block, whether it stands above or below them.
Key:
HLA-B*57:01 [1] = assay: IEDB peptide-MHC binding, purified MHC/competitive/radioactivity; filed as Kd, often an IC50 or EC50 that approximates it; ≥ and ≤ were set here for values at or beyond the usual limits of such assays
HLA-B*58:01 [2] = assay: as above
HLA-A*02:17 = assay: as above
HLA-A*02:06 = assay: as above
HLA-A*02:03 [3] = assay: as above
HLA-A*02:01 [4] = assay: as above
HLA-A*32:01 = assay: as above
HLA-B*48:01 = assay: IEDB peptide-MHC binding, purified MHC/direct/fluorescence; filed as Kd, often an IC50 or EC50 that approximates it; ≥ and ≤ were set here for values at or beyond the usual limits of such assays
HLA-A*31:01 [5] = assay: IEDB peptide-MHC binding, purified MHC/competitive/radioactivity; filed as Kd, often an IC50 or EC50 that approximates it; ≥ and ≤ were set here for values at or beyond the usual limits of such assays; details: source organism: Dengue virus 2 Jamaica/1409/1983
HLA-A*03:01 = assay: IEDB peptide-MHC binding, purified MHC/direct/fluorescence; filed as Kd, often an IC50 or EC50 that approximates it; ≥ and ≤ were set here for values at or beyond the usual limits of such assays
HLA-B*27:05 = assay: as above
HLA-A*11:01 = assay: as above
HLA-B*40:01 = assay: as above
HLA-A*69:01 [6] = assay: as above
HLA-B*44:02 = assay: as above; details: source organism: Vibrio cholerae
HLA-B*08:01 [7] = assay: as above; details: source organism: Vibrio cholerae
HLA-B*07:02 = assay: as above; details: source organism: Vibrio cholerae
HLA-A*02:01 [8] = assay: as above
HLA-A*26:01 = assay: as above; details: source organism: Vibrio cholerae
HLA-A*01:01 = assay: as above
HLA-A*31:01 [9] = assay: as above
HLA-B*58:01 [10] = assay: as above
HLA-B*08:01 [11] = assay: IEDB peptide-MHC binding, purified MHC/competitive/radioactivity; filed as Kd, often an IC50 or EC50 that approximates it; ≥ and ≤ were set here for values at or beyond the usual limits of such assays
HLA-A*69:01 [12] = assay: IEDB peptide-MHC binding, purified MHC/competitive/fluorescence; filed as Kd, often an IC50 or EC50 that approximates it; ≥ and ≤ were set here for values at or beyond the usual limits of such assays; details: source organism: Homo sapiens
HLA-B*57:01 [13] = assay: as above
HLA-B*51:01 = assay: as above; details: source organism: Homo sapiens
HLA-B*15:01 [14] = assay: as above
HLA-B*27:03 = assay: as above; details: source organism: Homo sapiens
HLA-B*39:01 = assay: as above; details: source organism: Homo sapiens
HLA-B*46:01 = assay: as above; details: source organism: Homo sapiens
HLA-B*18:01 = assay: IEDB peptide-MHC binding, purified MHC/direct/fluorescence; filed as Kd, often an IC50 or EC50 that approximates it; ≥ and ≤ were set here for values at or beyond the usual limits of such assays
HLA-A*02:03 [15] = assay: IEDB peptide-MHC binding, purified MHC/competitive/fluorescence; filed as Kd, often an IC50 or EC50 that approximates it; ≥ and ≤ were set here for values at or beyond the usual limits of such assays; details: source organism: human gammaherpesvirus 4
HLA-A*02:01 [16] = assay: as above; details: source organism: human gammaherpesvirus 4
HLA-A*68:02 = assay: IEDB peptide-MHC binding, purified MHC/competitive/radioactivity; filed as Kd, often an IC50 or EC50 that approximates it; ≥ and ≤ were set here for values at or beyond the usual limits of such assays; details: source organism: Dengue virus 4 Philippines/H241/1956
HLA-B*15:17 = assay: IEDB peptide-MHC binding, purified MHC/competitive/fluorescence; filed as Kd, often an IC50 or EC50 that approximates it; ≥ and ≤ were set here for values at or beyond the usual limits of such assays; details: source organism: Escherichia coli str. K-12 substr. DH10B
HLA-B*15:01 [17] = assay: IEDB peptide-MHC binding, purified MHC/competitive/radioactivity; filed as Kd, often an IC50 or EC50 that approximates it; ≥ and ≤ were set here for values at or beyond the usual limits of such assays; details: source organism: Dengue virus 2 Jamaica/1409/1983
[18] = source organism: Dengue virus 3 Martinique/1243/1999
[19] = source organism: Dengue virus 4 Dominica/814669/1981
[20] = source organism: Dengue virus 4 Philippines/H241/1956
[21] = source organism: Dengue virus 2 Jamaica/1409/1983
[22] = source organism: Dengue virus 1 Singapore/S275/1990
[23] = source organism: Dengue virus 1 Brazil/97-11/1997
[24] = source organism: Vibrio cholerae
[25] = source organism: Dengue virus 1 Nauru/West Pac/1974
[26] = source organism: Yellow fever virus
[27] = source organism: Escherichia coli O157:H7
[28] = source organism: Escherichia coli str. K-12 substr. DH10B

Sequence: ASSLLRNDVP
Kd (HLA-B*57:01 [1]; [18]): 11600 nM
Kd (HLA-B*58:01 [2]; [18]): 745 nM

Sequence: ATGPILTLW
Kd (HLA-B*57:01 [1]; [19]): 8.07 nM
Kd (HLA-B*58:01 [2]; [19]): 13.1 nM

Sequence: AVASGLLWV
Kd (HLA-A*02:17; [20]): 3300 nM
Kd (HLA-A*02:06; [20]): 11.7 nM
Kd (HLA-A*02:03 [3]; [20]): 1.89 nM
Kd (HLA-A*02:01 [4]; [20]): 18.9 nM

Sequence: ERSWNSGHEW
Kd (HLA-B*58:01 [2]; [21]): 135 nM

Sequence: FLAHYIGTSL
Kd (HLA-A*02:17; source organism: Dengue virus 3 China/80-2/1980): 22.5 nM
Kd (HLA-A*02:03 [3]; [18]): 3.3 nM

Sequence: FLDLPLPWL
Kd (HLA-A*02:17; [21]): 9.46 nM
Kd (HLA-A*02:06; [21]): 127 nM
Kd (HLA-A*02:01 [4]; [21]): 10.3 nM

Sequence: FLNEDHWFS
Kd (HLA-A*02:17; [21]): 185 nM
Kd (HLA-A*02:01 [4]; [21]): 4 nM

Sequence: GLLCLTLFV
Kd (HLA-A*02:17; [20]): 8.47 nM
Kd (HLA-A*02:06; [20]): 16.4 nM
Kd (HLA-A*02:01 [4]; [20]): 2.44 nM

Sequence: GLLFMILTV
Kd (HLA-A*02:17; [22]): 14300 nM
Kd (HLA-A*02:01 [4]; [22]): 42.9 nM
Kd (HLA-A*32:01; [23]): ≥ 77800 nM

Sequence: GLNTFTNMEV
Kd (HLA-A*02:17; [20]): 421 nM
Kd (HLA-A*02:03 [3]; [23]): 15.3 nM
Kd (HLA-A*02:01 [4]; [20]): 3.82 nM

Sequence: GQPIPIAGL
Kd (HLA-B*48:01; source organism: Mycobacterium tuberculosis C): 0.299 µM

Sequence: HSSAAQRRGR
Kd (HLA-B*57:01 [1]; [21]): 71.8 nM
Kd (HLA-A*31:01 [5]): 24.1 nM
Kd (HLA-B*58:01 [2]; [21]): 11300 nM

Sequence: IHYAGWVSL
Kd (HLA-A*03:01; [24]): ≥ 20 µM
Kd (HLA-B*27:05; [24]): ≥ 20 µM
Kd (HLA-A*11:01; [24]): ≥ 20 µM
Kd (HLA-B*40:01; [24]): ≥ 20 µM
Kd (HLA-A*69:01 [6]; [24]): ≥ 20 µM
Kd (HLA-B*44:02): ≥ 20 µM
Kd (HLA-B*08:01 [7]): ≥ 20 µM
Kd (HLA-B*07:02): 323 nM
Kd (HLA-A*02:01 [8]; [24]): ≥ 20 µM
Kd (HLA-A*26:01): ≥ 20 µM
Kd (HLA-A*01:01; [24]): ≥ 20 µM
Kd (HLA-A*31:01 [9]; [24]): ≥ 20 µM
Kd (HLA-B*58:01 [10]; [24]): ≥ 20 µM

Sequence: ILLTAVAPSM
Kd (HLA-A*02:17; [21]): 5960 nM
Kd (HLA-B*08:01 [11]; [21]): 8.71 µM
Kd (HLA-A*02:01 [4]; [21]): 2490 nM

Sequence: IMAVGLVSL
Kd (HLA-A*69:01 [6]; source organism: dengue virus type 4): ≥ 20 µM
Kd (HLA-A*02:17; [20]): 802 nM
Kd (HLA-A*02:03 [3]; [20]): 0.16 nM

Sequence: IMAVGMVSI
Kd (HLA-A*02:17; [21]): 785 nM
Kd (HLA-A*02:03 [3]; [21]): 8.29 nM
Kd (HLA-A*32:01; [21]): 20.4 nM

Sequence: KLARASFIEV
Kd (HLA-A*02:17; [22]): 705 nM
Kd (HLA-A*02:06; [23]): 22 nM
Kd (HLA-A*02:03 [3]; [23]): 20.1 nM
Kd (HLA-A*02:01 [4]; [22]): 14.9 nM

Sequence: KSWLVHKQW
Kd (HLA-B*57:01 [1]; [23]): 5.87 nM
Kd (HLA-A*32:01; [23]): 16.9 nM
Kd (HLA-B*58:01 [2]; [23]): 3.03 nM

Sequence: KSYAQMWTL
Kd (HLA-B*57:01 [1]; [21]): 6.59 nM
Kd (HLA-A*32:01; [21]): 16.4 nM
Kd (HLA-B*58:01 [2]; [21]): 6.37 nM

Sequence: KTQAIDGEF
Kd (HLA-A*32:01; [19]): 640 nM
Kd (HLA-B*58:01 [2]; [19]): 287 nM

Sequence: KTQRSGALW
Kd (HLA-B*57:01 [1]; [20]): 105 nM
Kd (HLA-B*58:01 [2]; [20]): 6.11 nM

Sequence: LMLLALIAVL
Kd (HLA-A*02:17; [22]): 2170 nM
Kd (HLA-B*08:01 [11]; [23]): 2.25 µM
Kd (HLA-A*02:01 [4]; [22]): 94.7 nM

Sequence: MASSVLLWMA
Kd (HLA-B*57:01 [1]; [22]): 859 nM
Kd (HLA-A*02:06; [22]): 90.6 nM
Kd (HLA-B*58:01 [2]; [22]): 223 nM

Sequence: MSSEGAWKHA
Kd (HLA-B*57:01 [1]; [20]): 134 nM
Kd (HLA-B*58:01 [2]; [20]): 254 nM

Kd (HLA-A*01:01; source organism: Homo sapiens): 0.0036 µM
Kd (HLA-A*69:01 [12]): ≥ 20 µM
Kd (HLA-B*57:01 [13]; source organism: Homo sapiens): ≥ 20000 nM
Kd (HLA-B*51:01): ≥ 20 µM
Kd (HLA-B*15:01 [14]; source organism: Homo sapiens): ≥ 20000 nM
Kd (HLA-B*27:03): ≥ 20 µM
Kd (HLA-B*39:01): ≥ 20 µM
Kd (HLA-B*46:01): ≥ 20 µM
Sequence: NTAINFFLY

Sequence: RRYGGGLVR
Kd (HLA-B*48:01; source organism: West Nile virus): ≥ 20 µM

Sequence: RVMGITAEW
Kd (HLA-B*57:01 [1]; [18]): 2.97 nM
Kd (HLA-A*32:01; [18]): 35.9 nM
Kd (HLA-B*58:01 [2]; [18]): 0.824 nM

Sequence: SESLPIWGI
Kd (HLA-B*18:01; source organism: Cryptosporidium parvum Iowa II): 13.7 µM

Sequence: SLLFKTSAGV
Kd (HLA-A*02:17; [25]): 820 nM
Kd (HLA-A*02:06; [23]): 35.8 nM
Kd (HLA-A*02:03 [3]; [23]): 287 nM
Kd (HLA-A*02:01 [4]; [25]): 21.6 nM

Sequence: SSSNPTIEEG
Kd (HLA-B*58:01 [2]; [20]): 5990 nM

Sequence: SVRDRLARL
Kd (HLA-A*02:03 [15]): 12.3 nM
Kd (HLA-A*02:01 [16]): 407 nM

Sequence: TASLVMLLVH
Kd (HLA-B*57:01 [1]; [19]): 7390 nM
Kd (HLA-B*58:01 [2]; [19]): 1350 nM

Sequence: TIMAVLFVV
Kd (HLA-A*02:17; [20]): 789 nM
Kd (HLA-A*68:02): 43.4 nM
Kd (HLA-A*02:06; [20]): 127 nM
Kd (HLA-A*02:03 [3]; [20]): 46.7 nM
Kd (HLA-A*02:01 [4]; [20]): 92.6 nM

Sequence: TMKEKSWLV
Kd (HLA-A*02:17; [22]): 40.3 nM
Kd (HLA-A*02:03 [3]; [23]): 94.6 nM
Kd (HLA-A*02:01 [4]; [22]): 54.7 nM

Sequence: VQGFIFFFL
Kd (HLA-B*18:01; [26]): ≥ 5 µM

Kd (HLA-B*48:01; [27]): ≥ 20 µM
Kd (HLA-A*03:01; [27]): ≥ 20 µM
Kd (HLA-B*27:05; [27]): ≥ 20 µM
Kd (HLA-A*11:01; [27]): ≥ 20 µM
Kd (HLA-B*40:01; [27]): ≥ 20 µM
Kd (HLA-A*69:01 [6]; [27]): ≥ 20 µM
Kd (HLA-A*02:01 [8]; [27]): ≥ 20 µM
Kd (HLA-A*01:01; [27]): 18.6 µM
Kd (HLA-A*31:01 [9]; [27]): ≥ 20 µM
Kd (HLA-B*58:01 [10]; [27]): ≥ 20 µM
Kd (HLA-B*57:01 [13]; [28]): 792 nM
Kd (HLA-B*15:17): ≥ 20 µM
Kd (HLA-B*15:01 [14]; [28]): 244 nM
Sequence: VSRDFDDVY

Sequence: YQLAVTIMAI
Kd (HLA-A*02:17; [21]): 7840 nM
Kd (HLA-A*02:06; [21]): 11.3 nM
Kd (HLA-A*02:03 [3]; [21]): 11.2 nM
Kd (HLA-A*02:01 [4]; [21]): 32.3 nM
Kd (HLA-B*15:01 [17]): 15.8 nM

Sequence: YRNALSMMP
Kd (HLA-B*48:01; [26]): ≥ 20 µM

Source: the Immune Epitope Database (IEDB)
